# Earlier results as cited in paper PMC12564422.
# Biological target: EGFR (epidermal growth factor receptor) (UniProt P00533)
# Test: cited
# Conditions: 3'-thiol; about 50 nm AuNPs, resuspended in water; aptamer M and Atto 1.2e-7 M, EGFR 880 pM, 1 h incubation; Tris-EDTA buffer listed among materials; salt, pH and …
sequence,measurement,value
GGACGGATTTAATCGCCGTAGAAAAGCATGTCAAAGCCGGAACCGTCC [aptamer M (EGFR-specific)],Kd,2.4 nM
